Source: patent US11629367

Target: Mouse IL-11 receptor alpha (Cat. No. MBS553276, MyBioSource, Inc.) (mouse) (UniProt Q64385)
Experiment: cell-based or functional assay

Sequence of UniProt Q64385 (Q64385 24-372): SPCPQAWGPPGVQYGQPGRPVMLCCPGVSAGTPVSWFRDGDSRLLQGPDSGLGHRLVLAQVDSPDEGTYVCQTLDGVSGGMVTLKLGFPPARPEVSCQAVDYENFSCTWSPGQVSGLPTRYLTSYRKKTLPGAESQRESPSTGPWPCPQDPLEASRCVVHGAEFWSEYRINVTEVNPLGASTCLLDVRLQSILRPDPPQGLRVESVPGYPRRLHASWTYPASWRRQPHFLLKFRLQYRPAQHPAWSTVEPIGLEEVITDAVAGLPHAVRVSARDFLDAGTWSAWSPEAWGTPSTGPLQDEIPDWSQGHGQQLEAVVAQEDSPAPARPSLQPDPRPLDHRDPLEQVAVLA

Substance	EC50, 7TD1 cell proliferation assay (MTS, absorbance at 490 nM) [ng/mL]
recombinant human IL-11 (rhIL-11) expressed in Pichia pastoris and purified by the described method (from UniProt P20809 22-199) (ligand)	2.2
Reference standard of rhIL-11, derived from yeast (Hangzhou Jiuyuan Gene Engineering Company) (from UniProt P20809 23-199) (ligand)	1.1
